Ends that are not written are not given here.
Legend:
[1] = Absolute quantum yield, integrated sphere technique; format: physicochemical
Method: Figure R6. Stability of DGC in AD brains. Monitoring fluorescence intensity of DGC in brain of WT mice and 3-month-old APP/PS1 mice for 24 h (left). In vivo and ex vivo NIR-II imaging of brains after DGC injected for 24 h (right).
The absolute quantum yield (QY) of DGC probe was measured to be ~0.7% using an […]
for biological applications. Although this QY is not high, but sufficient to produce a bright signal in the AD mouse brain for detection in vivo in this study.
Reviewer 3: The co-localization coefficient should be calculated in Figure 2d. […]
was calculated by Image J software. The co-localization coefficient (Pearson's correlation coefficient) of DGC and CTGF antibodies in Figure 2d was 0.946 (Fig. R15).
Figure R15. The co-localization coefficient (Pearson's correlation coefficient) of DGC and CTGF […]

CTGF = molecular target: T1, CTGF (Mus musculus, UniProt P29268); assay: DAB chromogenic imaging of DGC-labelled mouse brain sections; design: species or system APP/PS1 and wild-type C57BL/6J mice; details: 200 μM DGC + DAB
T1 construct: brain sections of the age-matched wild-type C57BL/6J mice were used as controls; from tissue; host or cells: brain of APP/PS1 transgenic and wild-type C57BL/6J mice (sections, living animal, perfused isolated brain)
T1 sequence (P29268 26-348): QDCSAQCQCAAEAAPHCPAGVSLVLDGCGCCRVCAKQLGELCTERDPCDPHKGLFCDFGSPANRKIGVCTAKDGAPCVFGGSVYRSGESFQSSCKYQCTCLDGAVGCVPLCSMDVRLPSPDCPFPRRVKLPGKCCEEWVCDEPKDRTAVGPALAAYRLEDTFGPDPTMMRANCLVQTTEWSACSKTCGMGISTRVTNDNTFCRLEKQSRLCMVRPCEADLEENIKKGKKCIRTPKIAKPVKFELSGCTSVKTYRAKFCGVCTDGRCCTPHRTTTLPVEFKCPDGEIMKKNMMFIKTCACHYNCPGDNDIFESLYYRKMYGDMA
Method: To observe the expression level of CTGF in the brain section with the naked eye, we optimized the conditions for labeling WT mice, 3-month-old APP/PS1 mice and 9-month-old APP/PS1 mice stained with DGC. According to the study, the optimal incubation concentration of DGC (200 μM) was used to determine the conditions using the DAB Horseradish Peroxidase Color Development Kit. After the brain sections were co-stained by DGC (200 μM) at 4 °C overnight, a DAB chromogenic agent was added to the brain sections. […] After the brown product was imaged by optical microscopy and analyzed by Image Pro Plus software.

[2] = Effect of DGC on blood biochemistry of mice; format: in vivo, C57BL/6J mice; details: DGC group, mean of 3 mice
Description: In order to clarify the NIR-II signal in AD brains when in vivo imaging is arisen from the DGC probe that bound to CTGF, we selected 3-month-old APP/PS1 mice representing early-stage AD and the age-matched WT mice as control to performed ex vivo multimodal analysis of the brain sections. […] To exclude the influence of vascular retention, we emptied the cerebral vessels by cardiac perfusion and performed ex vivo imaging of the brains. […] For brain sections made from AD mice after tail vein injection of DGC, the red fluorescence observation and LA-ICP-TOF-MS of DGC, as well as a POD-like catalysis test were performed. […] In Fig. 6c, the colocalization of DGC (red fluorescence) and CTGF (green fluorescence) on the ex vivo brain sections confirmed the specificity of DGC targeting CTGF in vivo. To further identify the cellular target of DGC in the brain of APP/PS1 mice, we carried out immunofluorescence staining on the ex vivo brain sections after tail vein injection of DGC where cell-specific fluorescent antibodies for microglia (Iba 1), neurons (NeuN), vascular endothelial cell (CD31) and reactive astrocytes (GFAP) were applied. In Fig. 6d, […] co-localizes with GFAP-positive active astrocytes and CD31-positive microvessels, but not with neurons or microglia. […] The biosafety of DGC in C57BL/6J mice under the NIR-II imaging condition was evaluated by blood tests (blood cells and biochemical analysis) and organ pathological analysis (H&E staining).

- DAB chromogenic imaging intensity (CTGF; 3-month-old APP/PS1 mouse brain section, section 1): 0.198
- DAB chromogenic imaging intensity (CTGF; 3-month-old APP/PS1 mouse brain section, section 2): 0.151
- DAB chromogenic imaging intensity (CTGF; 3-month-old APP/PS1 mouse brain section, section 3): 0.127
- DAB chromogenic imaging intensity (CTGF; 9-month-old APP/PS1 mouse brain section, section 1): 0.282
- DAB chromogenic imaging intensity (CTGF; 9-month-old APP/PS1 mouse brain section, section 2): 0.35
- DAB chromogenic imaging intensity (CTGF; 9-month-old APP/PS1 mouse brain section, section 3): 0.237
- DAB chromogenic imaging intensity (CTGF; WT mouse brain section, Image Pro Plus, section 1): 0.03
- DAB chromogenic imaging intensity (CTGF; WT mouse brain section, Image Pro Plus, section 2): 0.061
- DAB chromogenic imaging intensity (CTGF; WT mouse brain section, Image Pro Plus, section 3): 0.019
Substance: DGC: CTGF-targeting peptide-coated gold nanocluster: one Au26 gold nanocluster coated by eight DAG cyclic peptides, NIR-II and red fluorescence (CDAGRKQKC; also: cyclic peptide, ring not given here, eight peptides on one Au26 nanocluster via Cys Au-S bonds)
- absolute quantum yield (QY) [1]: ~ 0.7%
- Urea (UREA) [2]: 9.62 ± 1.25
- Alanine aminotransferase (ALT) ([2]; in U/L (unit assumed)): 32.8 ± 4.26
- Alkaline phosphatase (ALP) ([2]; in U/L (unit assumed)): 220.7 ± 27.07
- Aspartate aminotransferase (AST) ([2]; in U/L (unit assumed)): 120.2 ± 20.04
- Creatinine (CREA) ([2]; in µmol/L (unit assumed)): 22.67 ± 1.98

Reference: article PMC11169542, “A probe for NIR-II imaging and multimodal analysis of early Alzheimer’s disease by targeting CTGF” (Nature Communications, 2024)
